This note sets out measurements from PMC12543323, “IFIT1 is rapidly evolving and exhibits disparate antiviral activities across 11 mammalian orders”.

Numbering of substitutions follows the chain as printed.

In one series the target is T1, human IFIT1 (Homo sapiens, UniProt P09914 1-478).
T1 sequence: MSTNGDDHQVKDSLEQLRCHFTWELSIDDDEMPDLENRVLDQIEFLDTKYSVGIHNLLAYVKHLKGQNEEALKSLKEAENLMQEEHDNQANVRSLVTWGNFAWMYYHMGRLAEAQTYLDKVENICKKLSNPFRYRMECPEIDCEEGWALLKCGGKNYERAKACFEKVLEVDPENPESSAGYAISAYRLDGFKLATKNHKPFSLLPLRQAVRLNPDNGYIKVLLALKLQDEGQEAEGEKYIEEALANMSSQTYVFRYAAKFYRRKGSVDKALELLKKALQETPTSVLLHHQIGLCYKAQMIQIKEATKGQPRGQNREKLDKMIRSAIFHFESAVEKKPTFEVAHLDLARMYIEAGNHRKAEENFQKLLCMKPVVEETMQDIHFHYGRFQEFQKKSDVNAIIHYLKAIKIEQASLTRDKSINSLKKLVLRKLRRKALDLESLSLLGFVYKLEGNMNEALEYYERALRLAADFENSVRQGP
The series can be described thus: EMSA; 50 mM Tris pH 8.0 ([…], room temperature 20 min; […]. The conditions noted are these: protein: recombinant; tags: N-terminal 6xHis-SUMO (smt3) removed by Ulp1; label: none (SYBR Gold post-stain).

Another series has as its target T2, human IFIT1 R187H (Homo sapiens, UniProt P09914 1-478, R187H).
T2 sequence: T1 sequence with R187H
Described as above. The conditions noted are these: protein: recombinant; tags: N-terminal 6xHis-SUMO (smt3) removed by Ulp1; label: none (SYBR Gold post-stain).

As to AUAGGCGGCGCAUGAGAGAAGCCCAGACCAAUUACCUACCC (ssRNA, 5' Cap0 (m7GpppA, no 2'-O methylation; at least 95% by LC/MS)) [Cap0 VEEV TC-83 5' UTR RNA (41 nt)], the binding result is listed as “binds” in the series with human IFIT1 and “no binding” with human IFIT1 R187H.
